Changes are numbered by the printed parent chain. One block for each binder: values may come before it.
Assays:
[1] = molecular target: T1, recombinant BACE1 (BACE1 extracellular domain, R&D Systems Cat#931-AS) (UniProt P56817 22-457); experiment: SPR Biacore
T1 construct: extracellular domain; also called BACE1 extracellular domain protein

[2] = molecular target: T1, recombinant BACE1 (BACE1 extracellular …); experiment: SPR Biacore 8K, antibody captured, BACE1 analyte
Description: The binding affinities of the affinity matured humanized 2H8 variants for BACE1 were determined by surface plasmon resonance using a Biacore™ 8K instrument. […] The binding was monitored for 300 seconds and then dissociation was monitored for 600+ seconds in HBS-EP+ running buffer (GE Healthcare Life Sciences, BR100669). Binding response was corrected by subtracting the RU from a blank flow cell. A 1:1 Langmuir model of simultaneous fitting of kₒₙ and koff was used for kinetics analysis.

[3] = molecular target: cellular BACE1 in CHOK1-huAPP cells; experiment: cell-based or functional assay
[4] = molecular target: T1, recombinant BACE1 (BACE1 extracellular …); experiment: SPR Biacore; remark: listed apart in the source

T1 sequence (P56817 22-457): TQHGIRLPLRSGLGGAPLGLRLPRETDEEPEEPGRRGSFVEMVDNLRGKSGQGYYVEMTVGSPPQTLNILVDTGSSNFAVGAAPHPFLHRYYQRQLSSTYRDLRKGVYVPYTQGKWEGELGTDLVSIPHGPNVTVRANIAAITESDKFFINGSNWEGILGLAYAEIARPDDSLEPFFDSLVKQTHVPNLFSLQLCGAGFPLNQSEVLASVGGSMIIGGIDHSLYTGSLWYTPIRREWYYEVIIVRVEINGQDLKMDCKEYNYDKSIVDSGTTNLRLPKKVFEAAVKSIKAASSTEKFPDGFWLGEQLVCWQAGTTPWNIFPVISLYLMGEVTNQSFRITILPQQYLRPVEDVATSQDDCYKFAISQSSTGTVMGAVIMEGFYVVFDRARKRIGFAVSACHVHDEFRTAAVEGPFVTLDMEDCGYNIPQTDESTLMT

B1: hu2H8v4 (antibody, V domains shown)
VH: QVQLVQSGAEVKKPGASVKVSCKASGYTFTNFWIHWVRQAPGQGLEWMGMIDPSDSYTKYNQKFKARATLTRDTSTSTVYMELSSLRSEDTAVYYCARSGVAFPYWGQGTLVTVSS
VL: DIQMTQSPSSLSASVGDRVTITCKASQDVGRNVAWYQQKPGKAPKLLIYSASHRYSGVPSRFSGSGSGTDFTLTISSLQPEDFATYYCQQYNSYPYTFGQGTKVEIK
notes: humanized; also called hu2H8_HC5 + hu2H8_LC1
- Kd [1]: 169 nM

B3: hu2H8v6 (antibody, V domains shown)
VH: B1 VH with V37L, R72V, V79T
VL: B1 VL
notes: humanized; also called hu2H8_HC7 + hu2H8_LC1
- Kd [1]: 109 nM

B5: hu2H8v13 (antibody, V domains shown)
VH: B1 VH with A68V, L70M, V79T
VL: B1 VL with L46S
notes: humanized; also called hu2H8_HC1 + hu2H8_LC3
- Kd [1]: 22.8 nM

B6: hu2H8v8 (antibody, V domains shown)
VH: B1 VH with V37L, A68V, L70M, V79T
VL: B1 VL with A43S
notes: humanized; also called hu2H8_HC2 + hu2H8_LC2
- Kd [1]: 155 nM

B10: hu2H8v9 (antibody, V domains shown)
VH: B1 VH with V37L, A68V, L70M, R72V, V79T
VL: B1 VL with A43S
notes: humanized; also called hu2H8_HC3 + hu2H8_LC2
- Kd [1]: 130 nM

B11: hu2H8v10 (antibody, V domains shown)
VH: B1 VH
VL: B1 VL with A43S
notes: humanized
- Kd [1]: 160 nM

B12: hu2H8v15 (antibody, V domains shown)
VH: B1 VH with V37L, A68V, L70M, R72V, V79T
VL: B1 VL with L46S
notes: humanized; also called hu2H8_HC3 + hu2H8_LC3
- Kd [1]: 16.4 nM

B13: hu2H8v5 (antibody, V domains shown)
VH: B1 VH with R72V
VL: B1 VL
notes: humanized; also called hu2H8_HC6 + hu2H8_LC1
- Kd [1]: 96.3 nM

B14: hu2H8v14 (antibody, V domains shown)
VH: B1 VH with V37L, A68V, L70M, V79T
VL: B1 VL with L46S
notes: humanized; also called hu2H8_HC2 + hu2H8_LC3
- Kd [1]: 17.7 nM

B15: hu2H8v16 (antibody, V domains shown)
VH: B1 VH
VL: B1 VL with L46S
notes: humanized; also called hu2H8_HC5 + hu2H8_LC3
- Kd [1]: 25.6 nM

B16: hu2H8v12 (antibody, V domains shown)
VH: B1 VH with V37L, R72V, V79T
VL: B1 VL with A43S
notes: humanized; also called hu2H8_HC7 + hu2H8_LC2
- Kd [1]: 171 nM

B19: hu2H8v11 (antibody, V domains shown)
VH: B1 VH with R72V
VL: B1 VL with A43S
notes: humanized; also called hu2H8_HC6 + hu2H8_LC2
- Kd [1]: 88.3 nM

B23: hu2H8v18 (antibody, V domains shown)
VH: B1 VH with V37L, R72V, V79T
VL: B1 VL with L46S
notes: humanized; also called hu2H8_HC7 + hu2H8_LC3
- Kd [1]: 20.7 nM

B25: hu2H8v7 (antibody, V domains shown)
VH: B1 VH with A68V, L70M, V79T
VL: B1 VL with A43S
notes: humanized; also called hu2H8_HC1 + hu2H8_LC2
- Kd [1]: 150 nM

B26: 2H8.31 (antibody, human IgG1, V domains shown)
VH: EVQLQQSGPELVKPGASVKLSCKASGYTFTNFWIHWLKQRPGQGLEWIGMIDPSDSYTKYNQKFKAKATLTVDTSSSTTYMHLSSLTSEDSAVYYCARSGVAFPYWGQRTLVTVSA
VL: DIQMTQSQKFMSKSVGDRVSVTCKASQNVGSNVAWYQQKSGQSPKSLIYSASHRYSGVPDRFTGSGSGTDFTLTISNVQSEDLADYFCQQYNSYPYTFGGGTRLEIK
notes: human IgG1/kappa; also called 2H8_HC + 2H8_LCvar6
- IC50 [3]: 33 nM
- Max. % inhibition [3]: 94%
- Kd [4]: 11.1 nM
- koff [4]: 0.000168 s⁻¹
- kon [4]: 15200 M⁻¹ s⁻¹

B27: 2H8.39 (antibody, human IgG1, V domains shown)
VH: B26 VH with P9A, K13R, A16T, N31S, F32Y, L37V, A66D
VL: B26 VL with Q3L, K13T, S31R, K39I, S46P, A84V, D85E, Y86F, R103K
notes: human IgG1/kappa; also called 2H8_HCvar3 + 2H8_LCvar7
- IC50 [3]: 43 nM
- Max. % inhibition [3]: 86%
- Kd [4]: 13 nM
- koff [4]: 0.000217 s⁻¹
- kon [4]: 16600 M⁻¹ s⁻¹

B28: 2H8.04 (antibody, human IgG1, V domains shown)
VH: EIQLQQSGTELVRPGTSVKLSCKASGYTFTNYWMHWVKQRPGQGLEWIGMIDPSAAYTNYNQNFKGKATLTVDTSSGTAYMQLSSLTSEDSAVYYCARSGVAFPYWGQGTTVTVSS
VL: B26 VL with Q3V, R18T, N28D, S31R
notes: human IgG1/kappa; also called 2H8_HCvar4 + 2H8_LC
- IC50 [3]: 26 nM
- Max. % inhibition [3]: 82%
- Kd [4]: 15.6 nM
- koff [4]: 0.000362 s⁻¹
- kon [4]: 23300 M⁻¹ s⁻¹

B29: 2H8.02 (antibody, human IgG1, V domains shown)
VH: B28 VH with I2V, S7P, V37I, A55D, A56T, N59K, Y60F, G77S, S84N
VL: B26 VL with Q3V, R18T, N28D, S31R
notes: human IgG1/kappa; also called 2H8_HCvar2 + 2H8_LC
- IC50 [3]: 42 nM
- Max. % inhibition [3]: 81%
- Kd [4]: 13.1 nM
- koff [4]: 0.000265 s⁻¹
- kon [4]: 20200 M⁻¹ s⁻¹

B30: 2H8.41 (antibody, human IgG1, V domains shown)
VH: EVQLQQPGAEVVRPGTSVKLSCKASGYTFTNYWMHWVKQRPGQGLEWIGMIDPSDNYTKYNQKLKGKATLTVDTSSSTANMHVNSLTSEDSAVYFCARSGVAFPYWGQGTLVTVSA
VL: B26 VL with Q3L, K13T, S31R, K39I, S46P, A84V, D85E, Y86F, R103K
notes: human IgG1/kappa; also called 2H8_HCvar5 + 2H8_LCvar7
- IC50 [3]: 36 nM
- Max. % inhibition [3]: 86%
- Kd [4]: 10.7 nM
- koff [4]: 0.000197 s⁻¹
- kon [4]: 18500 M⁻¹ s⁻¹

B31: 2H8.32 (antibody, human IgG1, V domains shown)
VH: B28 VH with I2V, S7P, V37I, A55D, A56T, N59K, Y60F, G77S, S84N
VL: B26 VL
notes: human IgG1/kappa; also called 2H8_HCvar2 + 2H8_LCvar6
- IC50 [3]: 61 nM
- Max. % inhibition [3]: 86%
- Kd [4]: 11.4 nM
- koff [4]: 0.000172 s⁻¹
- kon [4]: 15100 M⁻¹ s⁻¹

B32: 2H8.37 (antibody, human IgG1, V domains shown)
VH: B26 VH
VL: B26 VL with Q3L, K13T, S31R, K39I, S46P, A84V, D85E, Y86F, R103K
notes: human IgG1/kappa; also called 2H8_HC + 2H8_LCvar7
- IC50 [3]: 32 nM
- Max. % inhibition [3]: 93%
- Kd [4]: 16.4 nM
- koff [4]: 0.000331 s⁻¹
- kon [4]: 20200 M⁻¹ s⁻¹

B33: 2H8.05 (antibody, human IgG1, V domains shown)
VH: B30 VH
VL: B26 VL with Q3V, R18T, N28D, S31R
notes: human IgG1/kappa; also called 2H8_HCvar5 + 2H8_LC
- IC50 [3]: 44 nM
- Max. % inhibition [3]: 87%
- Kd [4]: 13.7 nM
- koff [4]: 0.000251 s⁻¹
- kon [4]: 18300 M⁻¹ s⁻¹

B34: 2H8.35 (antibody, human IgG1, V domains shown)
VH: B30 VH
VL: B26 VL
notes: human IgG1/kappa; also called 2H8_HCvar5 + 2H8_LCvar6
- IC50 [3]: 41 nM
- Max. % inhibition [3]: 85%
- Kd [4]: 15.2 nM
- koff [4]: 0.000171 s⁻¹
- kon [4]: 11200 M⁻¹ s⁻¹

B35: 2H8.42 (antibody, human IgG1, V domains shown)
VH: EVQLQQSGAELVRPGTSVKLSCKASGYTFNNYWMHWVKQRPGQGLEWIGMIDPSDDDIKNNQKFKGKATLTVDTSSSTAYMQLISLTSEDSAVYYCARSGVALPYWGQGTLVTVSA
VL: B26 VL with Q3L, K13T, S31R, K39I, S46P, A84V, D85E, Y86F, R103K
notes: human IgG1/kappa; also called 2H8_HCvar6 + 2H8_LCvar7
- IC50 [3]: 53 nM
- Max. % inhibition [3]: 97%
- Kd [4]: 11.6 nM
- koff [4]: 0.000221 s⁻¹
- kon [4]: 19000 M⁻¹ s⁻¹

Continued, values first:

- Kd [1]: 19.5 nM
B2: hu2H8v28 (antibody, V domains shown)
VH: B1 VH
VL: B1 VL with A43S, L46S, Y87F
notes: humanized; also called hu2H8_HC5 + hu2H8_LC5

- Kd [1]: 13.2 nM
B4: hu2H8v20 (antibody, V domains shown)
VH: B1 VH with V37L, A68V, L70M, V79T
VL: B1 VL with A43S, L46S
notes: humanized; also called hu2H8_HC2 + hu2H8_LC4

- Kd [1]: 28 nM
B7: hu2H8v23 (antibody, V domains shown)
VH: B1 VH with R72V
VL: B1 VL with A43S, L46S
notes: humanized; also called hu2H8_HC6 + hu2H8_LC4

- Kd [1]: 21.9 nM
B8: hu2H8v22 (antibody, V domains shown)
VH: B1 VH
VL: B1 VL with A43S, L46S
notes: humanized; also called hu2H8_HC5 + hu2H8_LC4

- Kd [1]: 16.3 nM
B9: hu2H8v26 (antibody, V domains shown)
VH: B1 VH with V37L, A68V, L70M, V79T
VL: B1 VL with A43S, L46S, Y87F
notes: humanized; also called hu2H8_HC2 + hu2H8_LC5

- Kd [1]: 17.4 nM
B17: hu2H8v19 (antibody, V domains shown)
VH: B1 VH with A68V, L70M, V79T
VL: B1 VL with A43S, L46S
notes: humanized; also called hu2H8_HC1 + hu2H8_LC4

- Kd [1]: 13.5 nM
B18: hu2H8v21 (antibody, V domains shown)
VH: B1 VH with V37L, A68V, L70M, R72V, V79T
VL: B1 VL with A43S, L46S
notes: humanized; also called hu2H8_HC3 + hu2H8_LC4

- Kd [1]: 22.1 nM
B20: hu2H8v25 (antibody, V domains shown)
VH: B1 VH with A68V, L70M, V79T
VL: B1 VL with A43S, L46S, Y87F
notes: humanized; also called hu2H8_HC1 + hu2H8_LC5

- Kd [1]: 74 nM
B21: hu2H8v24 (antibody, V domains shown)
VH: B1 VH with V37L, R72V, V79T
VL: B1 VL with A43S, L46S
notes: humanized; also called hu2H8_HC7 + hu2H8_LC4

- Kd [2]: 8.42 nM
B22: hu2H8v29.12 (antibody, V domains shown)
VH: B1 VH with T30N, R72V
VL: B1 VL with A43S, L46S, Y87F
notes: captured via human Fc; also called hu2H8_LC5 + hu2H8_HC6.1

- Kd [1]: 23.7 nM
B24: hu2H8v30 (antibody, V domains shown)
VH: B1 VH with V37L, R72V, V79T
VL: B1 VL with A43S, L46S, Y87F
notes: humanized; also called hu2H8_HC7 + hu2H8_LC5
